For experiment [1], the target named is T1, Recombinant rhesus monkey PD-1-His (Sino Biological catalog #90305-K08H) (rhesus monkey).
T1 construct: Bought protein; also called rhesus PD-1-His; rhesus monkey PD-1 antigen; not shown: His tag
T1 chain: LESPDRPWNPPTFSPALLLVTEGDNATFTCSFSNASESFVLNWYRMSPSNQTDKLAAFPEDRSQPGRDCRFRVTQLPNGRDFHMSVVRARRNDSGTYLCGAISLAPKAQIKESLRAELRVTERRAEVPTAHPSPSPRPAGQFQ
Nature of the experiment: SPR (BIACORE), antibody captured on anti-human Fc, PD-1-His as analyte. As to the method: (§1) Binding kinetics of anti-PD1 antibodies with PD-1 proteins from different species was measured using surface plasmon resonance (SPR). […] The PD-1 proteins from human (catalog #10377-H08H-B), cynomolgus monkey (catalog #90311-C08H), rhesus monkey (catalog #90305-K08H), and mouse (catalog #50124-M08H) were obtained from Sino Biological. Anti-human fragment crystallizable region (Fc region) antibody was immobilized on a CMS sensor chip to approximately 8,000 RU using standard N-hydroxysuccinimide/N-Ethyl-N′-(3-dimethylaminopropyl) carbodiimide hydrochloride (NHS/EDC) coupling methodology. […] Recombinant human, cyno, rhesus and mouse PD-1-His were serially diluted in a running buffer of 0.01 M HEPES pH 7.4, 0.15 M NaCl, 3 mM EDTA, 0.05% v/v Surfactant P20 (HBS-EP+). All measurements were conducted in HBS-EP+ buffer with a flow rate of 30 μL/minute. A 1:1 (Langmuir) binding model was used to fit the data. All BIACORE assays were performed at room temperature.
A general note: SPR reads the build-up and loss of mass on a sensor chip optically.

Experiment [2] has as its target T2, Recombinant cynomolgus monkey PD-1-His (Sino Biological catalog #90311-C08H) (cynomolgus monkey, UniProt Q15116 25-167 (human entry)).
T2 construct: Bought protein; also called cyno PD-1-His; cynomolgus monkey PD-1 antigen; not shown: His tag
T2 chain: T1 chain with P10A, R67Q, Q75R
The experiment is described as above. As to the method: as §1

In experiment [3] the target is T3, Recombinant mouse PD-1-His (Sino Biological catalog #50124-M08H) (mouse, UniProt Q02242 25-167).
T3 construct: Bought protein; also called mouse PD-1 antigen; not shown: His tag
T3 sequence: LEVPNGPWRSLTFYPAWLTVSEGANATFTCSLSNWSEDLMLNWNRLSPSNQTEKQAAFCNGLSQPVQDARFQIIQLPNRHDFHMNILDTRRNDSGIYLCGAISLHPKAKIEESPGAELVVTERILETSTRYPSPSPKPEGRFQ
Described as above. As to the method: as §1

For experiment [4], the target named is PD-1 in the Promega PD1/PD-L1 blockade reporter bioassay (Cat. No. J1250) (human, UniProt Q15116 25-288). Nature of the experiment: cell-based or functional assay.
Chain of PD-1 in the Promega PD1/PD-L1 blockade reporter bioassay (Cat. No. J1250) (Q15116 25-288 limits assumed): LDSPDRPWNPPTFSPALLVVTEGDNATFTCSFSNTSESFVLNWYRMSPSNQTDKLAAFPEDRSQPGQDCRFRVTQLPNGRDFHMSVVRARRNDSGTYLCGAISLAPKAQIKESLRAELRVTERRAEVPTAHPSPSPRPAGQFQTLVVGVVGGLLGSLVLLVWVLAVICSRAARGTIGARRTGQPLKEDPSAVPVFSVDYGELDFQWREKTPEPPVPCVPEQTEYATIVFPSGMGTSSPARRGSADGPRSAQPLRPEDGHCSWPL

Residue numbers refer to the chain shown, from its start.

The values that follow come from patent US20230235059A1 (SORRENTO THERAPEUTICS, published 2023).

B1: HPD-BB9 (antibody, V domains shown)
VH: QVQLVQSGAEVKKPGASVKVSCKASGFRLTTNGISWVRQAPGQGLEWMGWISAGGGPTNYAQKLQGRVTMTTDTSTSTAYMELRSLRSDDTAVYYCAKGLYGTKDAWGQGTLVTVSS
VL: QSVLTQPPSVSEVPGQRVTISCSGGGSNIGSNAVNWYQHFPGKAPKLLIYYNDLLPSGVSDRFSASKSGTSASLAISGLRSEDEADYYCAAWDDNLSAYVFATGTKVTVL
notes: also called HDP-BB9; anti-PD1 clone HPD-BB9
For the molecule B1, the binding result in experiment [1], in experiment [2] and in experiment [3] was “binds” each time. Also, the “EC50 of fold induction of Relative Light Units (RLU), PD1/PD-L1 blockade reporter bioassay” value in experiment [4] was determined as 0.493 µg/mL.
